# According to US6683059B1, “Mini-E1A gene and gene products” (priority 1996, dated 2004):
# B1: mini-E1ACterm: mini-E1A construct in pcDNA1.1 encoding E1A 186-289; expected polypeptide about 80 amino acids, 209-289, SEQ ID NO:1 (nucleic acid)
# chain: CCTGTGTCTGAACCTGAGCCTGAGCCCGAGCCAGAACCGGAGCCTGCAAGACCTACCCGCCGTCCTAAAATGGCGCCTGCTATCCTGAGACGCCCGACATCACCTGTGTCTAGAGAATGCAATAGTAGTACGGATAGCGTGGACTCCGGTCCTTCTAACACACCTCCTGAGAGACACCCGGTGGTCCCGCTGTGCCCCATTAAACCAGTTGCCGTGAGAGTTGGTGGGCGTCGCCAGGCTGTGGAATGTATCGAGGACTTGCTTAACGAGCCTGGGCAACCTTTGGACTTGAGCTGTAAACGCCCCAGGCCATAA
# modifications: pcDNA1.1 vector
# Tested on: subclone of SKOV-3.ip1
# Experiment: long-term survival study, E1A-Cterm lipid:DNA complex, aggressive SKOV-3.ip1 subclone in nude mice
# Format: in vivo, mouse
# Method: FIG. 9. Comparison of tumor suppressor activity of full-length E1A and mini-E1ACterm. Mice bearing tumors from an aggressive subclone of the SKOV-3.ip1 cell line were injected with the treatment compounds indicated. […] As also shown, while all nine control animals were dead by that time, none of the animals receiving full-length E1A or mini-E1ACterm had died. Mini-E1ACterm was equivalent to full-length E1A in tumor suppression.
# Long-term survival studies were performed using the E1A-Cterm mini-gene in a tumor engraftment model and DNA-lipid formulations as described above. In this study, it appears that the subclone of SKOV-3.ip1 used may have been even more aggressive in tumor formation than the SKOV-3.ip1 parent used to induce tumors in the nude mice since no control mice survived for more than about 35 days. The protocol was otherwise as in the long-term study above except that: (i) 10 mice were used in each group receiving E1A formulations and 9 mice were used in the control group; (ii) 5% dextrose was used for control injections; and (iii) a lipid:DNA ratio of 10:1 w as used for the treatment formulations however, as above, each injection contained 15 μg of DNA.
molecule,measurement,setting,value
B1,animals alive when the last dextrose control mouse died,"about day 35, lipid:DNA 10:1, 15 μg DNA per injection, 10 mice per group",100%
same,tumor masses in surviving mice after 21 weeks,"visual inspection, the 4 surviving mice",no signs of such tumor masses
